Our source for the protein production values is a protein production outcome set (Wang et al. 2014).

The data set is described as follows: label from the status in PepcDB records.

As to “MSLSHKAWQNAHAMYENDACAKALGIDIISMDEGFAVVTMTVTAQMLNGHQSCHGGQLFSLADTAFAYACNSQGLAAVASACTIDFLRPGFAGDTLTATAQVRHQGKQTGVYDIEIVNQQQKTVALFRGKSHRIGGTITGEAEGGSHHHHHH”, the protein production entry is on record as “not failed”.
Then “MSLSINSREVLAEKVKNAVNNQPVTDMHTHLFSPNFGEILLWDIDELLTYHYLVAEVMRWTDVSIEAFWAMSKREQADLIWEELFIKRSPVSEACRGVLTCLQGLGLDPATRDLQVYREYFAKKTSEEQVDTVLQLANVSDVVMTNDPFDDNERISWLEGKQPDSRFHAALRLDPLLNEYEQTKHRLRDWGYKVNDEWNEGSIQEVKRFLTDWIERMDPVYMAVSLPPTFSFPEESNRGRIIRDCLLPVAEKHNIPFAMMIGVKKRVHPALGDAGDFVGKASMDGVEHLLREYPNNKFLVTMLSRENQHELVVLARKFSNLMIFGCWWFMNNPEIINEMTRMRMEMLGTSFIPQHSDARVLEQLIYKWHHSKSIIAEVLIDKYDDILQAGWEVTEEEIKRDVADLFSRNFWRFVGRNDHVTSVKVEQQTEGHHHHHH”, with “not failed”; and “MSLSLLITSITINTSHLQGMLGFYRIIGFQFTASKVDKGSEVHRAVHNGVEFSLYSIQNPQRSQIPSLQLGFQITDLEKTVQELVKIPGAMCILDPTDMPDGKKAIVLDPDGHSIELCELEGHHHHHH”, with “not failed”.
Regarding “MSLSNSKSTTTKDTVATLPNGASSLTETYGLWSINCGIQEGKKVCFMHRQEVNDQNRVVVAMSVVLNADGVVSGNLTVPFGILVSKPVRLQVDEGKAVIETGIRTCVPAGCIVPIVFDKNYVAALRAGKHLKLAMTIAAPGEPPLNDLFVQLNGFSNALNRLIALQKEGHHHHHH”, the protein production result was “not failed”.
In the case of “MSLSQNAPKSKGIKREELKKQYEDVEDEEEIGSDDDLTRGKRRKTEKEKQKLEESELVEMKKLENLIFGSLYSPVTFGKEEEEDGSALFHVDRSAVRQIPDYEDDGDDDEELSDEENGQVVAIRKGEAAWEDEEEKQINVDIASVNRLRKLRKEENEGLISGSEYIARLRAHHAKLNPGTDWARPDSQIVDGESSDDDDTQDGGVDDILRTNEDLVVKSRGNKLCAGRLEYSKLVDANAADPSNGPINSVHFHQNAQLLLTAGLDRRLRFFQIDGKRNTKIQSIFLEDCPIRKAAFLPNGSQVIVSGRRKFFYSFDLEKAKFDKIGPLVGREEKSLEYFEVSQDSNTIAFVGNEGYILLVSTKTKELIGTLKMNGSVRSLAFSEDGKHLLSSGGDGQVYVWDLRTMKCLYKGVDEGSTCGTSLCSSLNGALFASGTDRGIVNIYKKSEFVGGKRKPIKTVDNLTSKIDFMKFNHDAQILAIVSTMNKNSVKLVHVPSLTVFSNWPPPNSTMHYPRCLDFSPGSGFMAMGNAAGKVLLYKLHHYQNA” it was “failed”.
As for “MSLSRSEEMHRLTENVYKTIMEQFNPSLRNFIAMGKNYEKALAGVTYAAKGYFDALVKMGELASESQGSKELGDVLFQMAEVHRQIQNQLEEMLKSFHNELLTQLEQKVELDSRYLSAALKKYQTEQRSKGDALDKCQAELKKLRKKSQGSKNPQKYSDKELQYIDAISNKQGELENYVSDGYKTALTEERRRFCFLVEKQCAVAKNSAAYHSKGKELLAQKLPLWQQA”, the protein production result was “not failed”.
On to “MSLSSGEHEASRVLRERDYRWEGTEEEAYKAEGTHFSGARRQTLVGRPAGQEAPAFETRYFEVEPGGYTTLERHEHTHVVMVVRGHAEVVLDDRVEPLTPLDCVYIAPHAWHQIHATGANEPLGFLCIVDSDRDRPQRPDADDLARMCADPAVARRIRTEGHHHHHH”, for which the protein production entry was “not failed”.
Then “MSLSTARIMLVDDHPIVREGYRRLIERRPGYAVVAEAADAGEAYRLYRETTPDIVVMDLTLPGPGGIEATRHIRQWDGAARILIFTMHQGSAFALKAFEAGASGYVTKSSDPAELVQAIEAILAGRRAMSPDIAQEIAEERVEGREGHHHHHH”, with “not failed”.
